The test addresses F-4p-18mer-tail (synthetic fluorescein-labeled tetraphosphorylated PTEN C-tail peptide). Kind of test: fluorescence polarisation. For orientation: Polarisation of emitted light reports the rotation of a fluorescent probe.

Consider “VSP Asp mutants of the active site Lys residues (Lys364 and Lys367) (domain or fragment)”, for which the fold weakening of the phospho-tail interaction against wild-type VSP turned out to be 3.4 fold.

These data come from article PMC10037535.
